According to article PMC10792220 (Journal of Applied Glycoscience, 2023):

Columns and labels:
[1] = target: Aspergillus oryzae α-xylosidase AxyC, His6-tagged (Aspergillus oryzae); assay: SEC
[2] = target: T1, AxyC (Aspergillus oryzae, UniProt A0ABQ6KV83); assay: absorbance of released p-nitrophenol at […] nm; assay type: biochemical; conditions: read-out: Relative activity (%) at 40 mM
T1 sequence (A0ABQ6KV83 1-654): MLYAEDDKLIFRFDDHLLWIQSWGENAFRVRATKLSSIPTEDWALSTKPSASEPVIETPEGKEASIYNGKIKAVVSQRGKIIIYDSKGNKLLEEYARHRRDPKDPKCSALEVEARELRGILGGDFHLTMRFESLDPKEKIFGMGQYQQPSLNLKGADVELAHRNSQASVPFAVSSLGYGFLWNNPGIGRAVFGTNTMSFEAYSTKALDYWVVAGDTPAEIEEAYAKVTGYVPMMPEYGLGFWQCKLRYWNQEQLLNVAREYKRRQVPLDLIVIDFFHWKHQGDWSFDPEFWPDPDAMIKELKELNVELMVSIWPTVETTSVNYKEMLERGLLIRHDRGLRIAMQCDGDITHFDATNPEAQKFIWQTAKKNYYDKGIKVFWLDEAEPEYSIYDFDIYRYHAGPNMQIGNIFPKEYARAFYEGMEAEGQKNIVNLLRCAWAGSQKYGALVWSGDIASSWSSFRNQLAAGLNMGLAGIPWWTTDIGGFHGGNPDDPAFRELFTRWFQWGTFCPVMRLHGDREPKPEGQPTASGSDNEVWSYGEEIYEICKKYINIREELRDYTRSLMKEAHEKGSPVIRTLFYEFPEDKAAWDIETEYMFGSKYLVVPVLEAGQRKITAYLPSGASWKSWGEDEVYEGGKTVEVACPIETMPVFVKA

Row | Molecule | stoichiometry N [1] | activity at 40000 µM [2]
1 | Aspergillus oryzae α-xylosidase AxyC, His6-tagged (enzyme) | 4 | –
2 | OC1OC[C@@H](O)[C@H](O)[C@H]1O (stereo partly drawn) [D-xylose] | – | 84.8 ± 4.5%
